Source: the nanobody polyreactivity screen of Harvey et al. (2022)

assay: yeast display, Sf9 membrane polyspecificity reagent, FACS + sequencing; frameworks hold sequencing errors
In short: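 Sorting gates, low and high (top ~1%), were placed on anti-HA fluorescence to track expression and on streptavidin fluorescence to track reagent binding. A clone's polyreactivity label is taken from the gate it came out of. The reagent was 10% biotinylated, detergent-solubilized Sf9 membrane, applied for 1 hour at 4 °C to galactose-induced yeast display cells.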

Row | Sequence | polyreactivity (PSR sort gate)
1 | QVQLVESGGGLVQAGGSLRLSCAASGRTFGYYTMGWYRQAPGKERELVAAISWNGDDTYYADSVKGRFTISRDNAKNTVYLQMNSLKPEDTAVYYCAKDFLGNYYWTDVYTYGGEGDYWGQGTQVTVSS | low polyreactivity
2 | QVQLVESGGGLVQAGGSLRLSCAASGRTFHAYAMGGYRQARGKARELVATISTSGTSTYYADSVKGRFTISRDNAKNTVYLQMNSLKAEDTAVYYCGKGPRQDFYFSFEYWGQGTQVTVSS | high polyreactivity
3 | QVQLVESGGGLVQAGGSLRLSCAASGRTFHDNAMGWYRQAPGKETELVAAISWRGGSTNYADSVKGRFTISRDNAKNTVYLQMNSLKPEDTAVYYCNRDPRKYGKLDYWGQVTQVTVSS | low polyreactivity
4 | QVQLVESGGGLVQAGGSLRLSCAASGRTFHDYAMGWYRQAPGKERELVAAISISGVSTYYADSVKGRFTSSRDNAKNTVYLQMNSLKPVDTAVYYCAAAQDAAVYWRPGGYDYWGQGTQVTVSS | low polyreactivity
5 | QVQLVESGGGLVQAGGSLRLSCAASGRTFHFYAMGWYRQAPGKERELVASITWSAVRTYYADSVKGRFTISRDNAKNTVYLQMNSLKQVDTAVYYCAKEWDYRLMDYWGQGTQVTVSS | low polyreactivity
6 | QVQLVESGGGLVQAGGSLRLSCAASGRTFHGYAMGWYRQAPGKERELVAAINWRGGSTYYADSVKGRFTISRDNAKNTVYLQMNSLKPEDTAVYYCNKRQYSARVSRSYDYWGQGTQVTVSS | high polyreactivity
7 | QVQLVESGGGLVQAGGSLRLSCAASGRTFHGYAMRWYRQAPGKDRELVAAITSSGARTYYADSVKGRFTISRDNAKNTVYLQMNSLKPEDTACYYCNAEYYSTWYRFDYWGQGTQVTVSS | high polyreactivity
8 | QVQLVESGGGLVQAGGSLRLSCAASGRTFHSYAMGWYRQAPGKERELVAVITRRGGSTYYADSVKGRFTISRDNAKNTVYLQMNSLKPEDTAVYYCNKGKSYTYDYWGQGTQVTVSS | high polyreactivity
9 | QVQLVESGGGLVQAGGSLRLSCAASGRTFHYNVMGWYRQAPGKERELVAAITNTGGSTYYADSVKGRFTISRDNAKNTVYLQIYSLKPEDTAVYYCAAVIWGRRYGAYPYEYWGQGTQVTVSS | low polyreactivity
10 | QVQLVESGGGLVQAGGSLRLSCAASGRTFIAYAMGWYRQAPGKERELVAAITSSGGSTYYADSVKGRFTISRDNAKNTVYLQMNSLKPEDTAVYYCATDIYESPYFYYSYYYWGQGTQVTVSS | low polyreactivity
11 | QVQLVESGGGLVQAGGSLRLSCAASGRTFIDYGMGWYRQAPGKERELVAAISSGGSTYYADSVKGRFTISRDNAKNTVYLQMNSLKPEDTAVYYCAAPGFKYDVYAGYVLNGGGDYWGQGTQVTVSS | low polyreactivity
12 | QVQLVESGGGLVQAGGSLRLSCAASGRTFIGNVMGWYRQAPGKERELVAAISKSGTRTYYPDSVKGRFTISRDNAKNTVYLQMNSLKPEYTAVYYCAKDHYPRTDDFGYWGQGTQVTVSS | high polyreactivity
13 | QVQLVESGGGLVQAGGSLRLSCAASGRTFIGYAMGWYRQAPGKERELAAGISWSGGSTYYADSVKGRFTISRDNAKNTVYLQMNSLKPEDTAVYYCAARGRWSTEYGYWGQGTQVTVSS | low polyreactivity
14 | QVQLVESGGGLVQAGGSLRLSCAASGRTFIGYAMGWYRQAPGKERELVAAISPGGSTKYADSVKGRFTISRDNAKNTVYLQMNSLKPEDTAVYYCAASYSGRQDRYPHYDYWGQGTQVTVSS | low polyreactivity
15 | QVQLVESGGGLVQAGGSLRLSCAASGRTFIGYAMGWYRQAPGKERELVATISVSGGSTYYADSVKGRFTISRDNAKNTVYLQMNSLKPEDTAVYYCAKAYLRYYDGPYDYWGQGTQVTVSS | low polyreactivity
16 | QVQLVESGGGLVQAGGSLRLSCAASGRTFIINTMGWYRQAPGTERQLVAAISKNGATTNYADSVKGRFTISRDNAKNTVYLQMNSLKPVDTAVYYCNARYSGYLRLDYWGQGTQVTVSS | low polyreactivity
17 | QVQLVESGGGLVQAGGSLRLSCAASGRTFIKYAMGWYRQAPGKERELVAAISRNGGSTNYADSVKGRFTISRDNAKNTVYLHMNSLKPEDTAVYYCAAVGTVSRTVGYNYWGQGTQVTVSS | high polyreactivity
18 | QVQLVESGGGLVQAGGSLRLSCAASGRTFIKYAMGWYRQAPGKERELVAAITYSAGSTSYADSVKGRFTISRDNAKNTVYLQMNRLKPEDTAVYYCARRTRSYGYRSDYYYWGQGTQVTVSS | low polyreactivity
19 | QVQLVESGGGLVQAGGSLRLSCAASGRTFINYAMGWYRQAPGKERELVAAITTGGRTNYADSVKGRFTISRDNAKNTVYLQMNILKPEDTAVYYCAADRYYWGRYTLNYWGQGTLVTVSS | low polyreactivity
20 | QVQLVESGGGLVQAGGSLRLSCAASGRTFIPYAMGCYRPAPGKERELVAAIRSGASTNYADSVKGRFTISRDNAKITVYLQMNSLNPEDTAVYYCNADFLGGTWFDYWGQGTQVTVSS | high polyreactivity

Row | Sequence | polyreactivity (PSR sort gate)
21 | QVQLVESGGGLVQAGGSLRLSCAASGRTFIPYAMGWYRQAPGKVRELVAAIRNGGSTNYADSVKGRFTISRDNAKNTVYLQMNSLKPEATAVYYCNADLPVYVDYINGGYGYWGQGTQVTVSS | low polyreactivity
22 | QVQLVESGGGLVQAGGSLRLSCAASGRTFIRYAMGWYRQAPGKERELVAAISWSGDRTYYADSVKGRFTISRDNAKNTVYLQMNSLKPEDTAVYYCNAYRYLRTATFLKFDYWGQGTQVTVSS | high polyreactivity
23 | QVQLVESGGGLVQAGGSLRLSCAASGRTFIVYPMGWYRQAPGKERELVAAISKRGGSTYYADSVKGRFTISRDNAKNPVYLQMNRLKPDDTAVYYCNAALSVELGYAYWGQGTQVTVSS | high polyreactivity
24 | QVQLVESGGGLVQAGGSLRLSCAASGRTFIYYAMGWYRPAPGKERELVAAITWTGGRTYYADSVKGRFTISRDNAKNTVYLQMNSLKPEDTAVYYWAASDRYGGRDYWGQGTQVTVSS | high polyreactivity
25 | QVQLVESGGGLVQAGGSLRLSCAASGRTFIYYAMGWYRQAPGKERELVAGITYSVGSTYYADSVKGRFTISRDNEKNTVYLQMNSLKPEDTAVYFCAADATFESDWGQGTQVTVSS | low polyreactivity
26 | QVQLVESGGGLVQAGGSLRLSCAASGRTFIYYAMGWYRQAPGKERELVAVITGGGSTNYADSVKGRFTISRDNAKNTVYLQMNSLKPEDTAVYYCNRDYDASHTSREPLVGYDYWGQGTQVTVSS | low polyreactivity
27 | QVQLVESGGGLVQAGGSLRLSCAASGRTFIYYAMGWYRQAPRKERELVATIRGSSTRTYYADSVKGRFTISRDNAKNTVYLQMNSLKPEDTAVYYCAARGTSRKYYYWGQGTQVTVSA | high polyreactivity
28 | QVQLVESGGGLVQAGGSLRLSCAASGRTFKHYAMGWYRQAPGKERELVAAITSGGSTYYADSVKGRFTISRDNAKNTVYLQMNSLKPEDTAVYYCNKESYFDTYRRYDSWGQGTQVTVSS | low polyreactivity
29 | QVQLVESGGGLVQAGGSLRLSCAASGRTFKKKVMGWYRHAPGKERELFAAISNGGSTNYADSVKGRFTISRDNSKNTDYLQMNSLKPEDTAVYDCAAYITWGGYHTPNWGYDYWGQGTQVTVSS | low polyreactivity
30 | QVQLVESGGGLVQAGGSLRLSCAASGRTFKKYAMGWYSQAPGKERELVAAITVSGGSTYYADSVKGRFTVSRDNAKNTVYLQMNSLKPEDTAVYYCAAGSYSRYLFSLYFDFDYWGQGNQVTVSS | low polyreactivity
31 | QVQLVESGGGLVQAGGSLRLSCAASGRTFKLYAMGWYRQAPGKERELVAAISRSGGSTYYADSVKGRFTISRDNAKNTVYLQMNSLKPEDTAVYYCNRRQGYHGDYDYWGQGTQVTVSS | high polyreactivity
32 | QVQLVESGGGLVQAGGSLRLSCAASGRTFKNYAMGWYRQSPGKERELVAVISRRGSSTYYADSVKGRFTISRDNAKNTVYLQMNSLKPEDTAVYYSAARLGVPYPYIAYDYWGQGTQVTVSS | high polyreactivity
33 | QVQLVESGGGLVQAGGSLRLSCAASGRTFKPYAMGWYRQAPGKERELVAAISSGVSTHYADSVKGRFTISRDNAKNTVYLQMNSLKPEDTAVYYCAADYWVNYWFDYWGQGTQVTVSS | low polyreactivity
34 | QVQLVESGGGLVQAGGSLRLSCAASGRTFKPYTMGWYRQAPGKERELVATISTGTTSTYYADSVKGRFTISRDNAKNTVYLQMNSLKPEDTAVYYCAADSDSPVTYQSEDALEYWGQGTQVTVSS | low polyreactivity
35 | QVQLVESGGGLVQAGGSLRLSCAASGRTFKQYAMGWYSQAPGKERELVAAISRTGGRTYYADSVKGRFTISRDNAKNTVYLQMNSLKPEDTAVYFCNAVYYWYKGDYWGQGTQVTVSS | high polyreactivity
36 | QVQLVESGGGLVQAGGSLRLSCAASGRTFKRNAKGWYRQAPGKERELVAAISGTGASTYYADSVKGRFTISRDNAKNTVYLQMNSLKPEDTAVYYCAKYRYISNPVYLGDYWGQGTQVTVSS | high polyreactivity
37 | QVQLVESGGGLVQAGGSLRLSCAASGRTFKRNTMGWYRQAPGKERELVAAISGTGSTNYADSVKGRFTISRDNAKNTVYLQMNSLKPEDTAVYYCGADDFSTVEYDYWGQGTQVTVSS | low polyreactivity
38 | QVQLVESGGGLVQAGGSLRLSCAASGRTFKSYAMGWYRQAPGKERELVAAITWSGGSTYYADSVKGRFTISRDNAKNTVYLQMNSLKPEDTAVYYCAADSVYYYWYGYDYWGQGTQVTVSS | low polyreactivity
39 | QVQLVESGGGLVQAGGSLRLSCAASGRTFKWYAMGWYRQAPGKERELVASISWSGGGTYYADSVKGRFTISRDNAKNTVYLQMNSLKPEDTAVYECAAEYYNWGDYGYDYWGQGTQVTVSS | high polyreactivity
40 | QVQLVESGGGLVQAGGSLRLSCAASGRTFKYNAMGWSRPAPGKERELVAAISWSGGRTYYADSVKGRFTISRDNAKNTVYLQMNSLKPEDTAVYYCAAGVFKKYRPSGRYYYWGHGTQVTVSS | high polyreactivity
